Measurements from paper PMC11527279, “The SARS-CoV-2 ORF6 protein inhibits nuclear export of mRNA and spliceosomal U snRNA” (PLOS ONE, 2024).

Target: T1, GST-T7-ORF6-His (SARS-CoV-2, UniProt P0DTC6 1-61)
T1 construct: ORF6 protein of SARS-CoV-2, full-length recombinant protein; pGEX-T7-ORF6-His; T7 tag lies between GST and ORF6; also called GST-ORF6; not shown: GST, N-terminal, kept; T7, N-terminal, kept; His6, C-terminal, kept
T1 sequence: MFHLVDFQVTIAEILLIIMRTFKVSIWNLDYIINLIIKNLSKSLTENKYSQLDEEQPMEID
Details: both partners purified

B1: T7-ORF6-His (natural protein)
chain: MFHLVDFQVTIAEILLIIMRTFKVSIWNLDYIINLIIKNLSKSLTENKYSQLDEEQPMEID
notes: ORF6 protein of SARS-CoV-2, full-length recombinant protein; From pGEX-T7-ORF6-His (pGEX-6p-1 backbone); also called SARS-CoV-2 ORF6 protein; not shown: GST, N-terminal, cleaved; T7, N-terminal, kept; His6, C-terminal, kept
binding result: binds
